From the DeepSol protein solubility set come the findings set out here.

This data set is described as follows: soluble on expression in E. coli; label from the status in PepcDB or PDB records.
With “MQPEFWNDKRPAGVPDSLDFAAYRSVVEVFERSCKKFADRPAFSNLGVTLSYAELDRLSAAFAAYLQKQTDLQPGDRIAVQMPNVLQYPIAVFGALRAGLVVVNTNPLYTAREMRHQFKDAGVRALVYLNVFGKLVEEVLPDTRIEYLIEARMGDLLPALKGWLVNSVVKSVKKMVPDYRLPQALPFRQALKQGQGHALQPVRVGLEDVAVLQYTGGTTGVSKGAMLTHGNLVANMLQVHAQLSQLGKDGLPLMKEAQEVMIAPLPLYHIYAFTANCMCMMVSGNHNVLITNPRDIPGFVKELKKWRFSALLGLNTLFVALMEHPGFKDVDFSNLKLTNSGGTALVSATAERWKGVTGCTVVEGYGLTECSPVVTTNPYGEQARLGTVGIPVVGTALKVIDEQGNELPVGERGELCVKGPQVMKGYWQRPEATEEILDAEGWLKTGDIAVIDEDGFVRIVDRKKDLILVSGFNVYPNEIEDVVMAHPKVASCAAVGIPDEKSGEAVKLFVVARDPSLSVEELKAYCKENLTGYKIPRQIVLKDALPMTPVGKILR”, the “soluble on expression in E. coli” value is given as “not soluble”.
Consider “MSLSQQVIIFDTTLRDGEQALQASLSVKEKLQIALALERMGVDVMEVGFPVSSPGDFESVQTIARQVKNSRVCALARCVEKDIDVAAESLKVAEAFRIHTFIATSPMHIATKLRSTLDEVIERAIYMVKRARNYTDDVEFSCEDAGRTPIADLARVVEAAINAGATTINIPDTVGYTMPFEFAGIISGLYERVPNIDKAIISVHTHDDLGLAVGNSLAAVHAGARQVEGAMNGIGERAGNCSLEEVIMAIKVRKDILNVHTAINHQEIWRTSQLVSQICNMPIPANKAIVGSGAFAHSSGIHQDGVLKNRENYEIMTPESIGLNQIQLNLTSRSGRAAVKHRMDEMGYKESEYNLDNLYDAFLKLADKKGQVFDYDLEALAFIGKQQEEPEHFRLDYFSVQSGSNDIATAAVKLACGEEVKAEAANGNGPVDAVYQAINRITEYNVELVKYSLTAKGHGKDALGQVDIVANYNGRRFHGVGLATDIVESSAKAMVHVLNNIWRAAEVEKELQRKAQHNENNKETVEGGSHHHHHH”, for which the “soluble on expression in E. coli” value is “soluble”.
As for “MSFDLSWYGVPVEEEAKEEEAIVYGIPNNPELEQIIPAKFHSFVNEVIGDYNTLSDEEFWKKYNLREIWFDVKEYEEDNKAKNMLGTIIVFLLVEKEYILQLDYKEDLVDYIEDIDNYWGKEEVKLISFEVDNDQQYYAYVPKTAAIDSLYEVKLTEVEKIEEV”, the “soluble on expression in E. coli” value is given as “not soluble”.
Consider “MSLSRVRLVIAQCTVDYIGRLTAHLPSARRLLLFKADGSVSVHADDRAYKPLNWMSPPCWLTEESGGQAPVWVVENKAGEQLRITIEGIEHDSSHELGVDPGLVKDGVEAHLQALLAEHIQLLGEGYTLVRREYMTAIGPVDLLCSDERGGSVAVEIKRRGEIDGVEQLTRYLELLNRDSVLAPVKGVFAAQQIKPQARILATDRGIRCLTLDYDTMRGMDSGEYRLFEGHHHHHH”, for which the “soluble on expression in E. coli” value is listed as “soluble”.
Under “MAHHHHHHMVTAVASVVFARFLRQRYPTVQRVSQYENLSTSPDAPCFVANRILTMTSSQAGTHADGPHHFCRSLSHRNYDDAHYSGDAVVLDIATELREHHQSLDPDASLAITVEVLEKARVKLPAAFRDGSRPVWRLLLVTRHSTATSPTSASATEALTGPPRVFFPLDVASPTQVATVGVKGGTAATLAEPSSNAYAFLYPEAVDYLHRVFPRLVLLGIDSPSVDLPQAMPPGQHSHGALLRCGIAILENLRYTRLSPLLESPAGNNQRGWISGSMLTVFNATQNYDDARGCSVIFFPEEAL” stands “soluble”.
In the case of “MKTNYHTHTTRCMHAVGDDEDYVRSAIKGGFQELGFSDHGPWKYHTDFVSDIRMLPEDLPEYIESIRALKEKYRNQISIKIGLEYEYFPEYIHWLKEIIKEYRLDYILFGNHHYHTDEKFPYFGHHTTNRDMLDLYEESTIEGMESGLFAYLAHPDLFMRSYPEFDKHCISVSRHICRAAARLHIPLEYNIGYVAINEARGITTYPCPQFWHIAANEGCTAIIGLDAHNNLDLENPTYYDRACQELNALKMPVIDTIPFLKY” it was “not soluble”; in that of “IYQMAGLNEDADRNLWLAAFRDPYGKNNLDIASLKKSIAQWAKTQGKTIAPEKVDAVLKDRTGSAVCLTCGKNGKMKMPLKSLAWIQGSSSYSQAEVIEQTEETNSAEISETRTPEVPDVHTPEAQPHLNTQSDGTPTAYTEPAADSSPQVETPDQAASEPVDVLFSIDVIRQGNLRLGN”, “not soluble”.
Take “MSLNDYSRQNFLDLNLFRGLGEDPAYHPPVLTDRPRDWPLDRWAEAPRDLGYSDFSPYQWRGLRMLKDPDTQAVYHDMLWELRPRTIVELGVYNGGSLAWFRDLTKIMGIDCQVIGIDRDLSRCQIPASDMENITLHQGDCSDLTTFEHLREMAHPLIFIDDAHANTFNIMKWAVDHLLEEGDYFIIEDMIPYWYRYAPQLLSEYLGAFRDVLSMDMLYANASSQLDRGVLRRVAAKQEGHHHHHH”: the “soluble on expression in E. coli” value is given as “soluble”.
With “MGNRSSSHYPPPPHWMHQRTSYSTTTSPYPEAKQRPIAPGAFAEPYMHHNPHHPQSKAQMRRSMISLNADSGYMGGPDSERLRQMRGSRMSLNQIDFEPAMMPPPRILIPPDAKTLKKLEKMEKKHQKLMKKLGARGIPIQMPVPPPPPMHPMYSRAISYDDLHRMHEAPEIDVRMRQRDWRTSDERRGLPTRRETQSQYVKHNYSSTNRRAELNGSLASSSPMTSSEEGGHSSDPWNTSSISSGKRDIISPPMYSSTPHHHNHHNHQQLQHHQVIKSPQPPITKTIEVKVERSEKVEQQVSEPTKRAPPTAAQTASSTSSRIQHNQTLNNSNATYAQPIIRRQPSYGSRSSSIATSQMRCDQSEIDFSWVNEEEDKLKRESKRIDSLPEFYFGMDPPPVPSDNEKENDEKRNRRKSSVLEKTAAFEIEARRNDRKEPSFLSRSSHQLLTTSEIPPADYSPLSIHTKEIGGPAERRIYRIQKQQQQHSSEDRRYRSSIAF”, the “soluble on expression in E. coli” value was “not soluble”.
Under “MSLKFIGECRDRWPIAVLCRTLEVTRAAYYRFAGRGPTVTEIKQTQIIQAVKEIRLEKHHDAYGSPRMQRAIVKRGVVCCRNTVAKCMRHAGIQANRRTKFRISTTDSNHDQPIASNLLGQNFTTEAINRVWLTDITYIPTQEGSTYLCAFVDLHSRKIVSWKTSRNMDSELVVGAFDQALTFRKPNAGLIVHSDRGSQFASDHFRRRLAASGLVQSMSRRGNCYDNAPMESFFKSYKTEEAQQIYDTHEHATRGVSDYIERFYNPHRLHSSLGYLSPIDFEQAIKEPSLVSESEGHHHHHH” stands “not soluble”; under “SMKQDSRFPNLFILDHPLIQHKLTHMRDKDTSTRTFRELLREITLLMGYEITRNLPITTKRVETPLVEIDAPVIAGKKLAIVPVLRAGVGMSDGLLELIPSARVGHIGVYRADDHRPVEYLVRLPDLEDRIFILCDPMVATGYSAAHAIDVLKRRGVPGERLMFLALVAAPEGVQVFQDAHPDVKLYVASLDSHLDDHAYIVPGLGDAGDRLFGTKN”, “soluble”; under “MNQEDNTGGGGIFGLFKWTKDALFGTDISPSMKYKDQEERRDRSRYAQDDTNFSMKFGNDSNRRSTNLSRSNSWSGLDSTLHRKYELLPEYNENGFNSIVNGDHHSKERIRSLRSPAPIVPREPLRNEPTDTFGHRLHTKRRTINELSNSQIPFIPPQEDDPLLSKLFNKDGVNEVRRSPYKLSVKDIPGKFPSPLTKRDEIDNYYVRDEDACHKNREYKKAYFDLFAQMDLNSRDLEDLCEDVREQREQFHRNEQTYKQAYEEMRAELVNELKKSKTLFENYYSLGQKYKSLKKVLDQTISHEAELATSRERLYQEEDLKNFEIQTLKQRLSDLELKYTNLQIEKDMQRDNYESEIHDLLLQLSLRNNERKDTSAGSNIFSTGQ”, “soluble”.
Under “MGSDKIHHHHHHMKDSDILMLAEEGESTSEASARKKALLLGRQLGLASEQEYRPANASIAERAQHRARKLSSQYQANVETIFALALSYTPSDVTGVDLDPDWSHQFFLMAEQIHNRRMQDLWARILSSEIVNPGNFSLRTLALLKQLTHREAQILEKALGMAAKVNSEQRLKLISGYRLSGGIGQYFRKTTSVNLGLSQFGLPYSSILTLVDAGILHSSEFETGLLNNKTPIQFALQGIQMKLTPKSGNLLFSYYRFTPIGDELAQLVQPKPDQEYLKALQLLFAKDFKIE” stands “not soluble”; under “MEVTNGLNLKDTELRLGLPGAQEEQQLELSCVRSNNKRKNNDSTEESAPPPAKTQIVGWPPVRSNRKNNNNKNVSYVKVSMDGAPYLRKIDLKMYKNYPELLKALENMFKFTVGEYSEREGYKGSGFVPTYEDKDGDWMLVGDVPWDMFSSSCQKLRIMKGSEAPTAL”, “not soluble”.
